From patent US20250298013A1

Key:
[1] = molecular target: Background (Staphylococcus aureus); assay: SPRi, in-line blocking: IgG mix injected after thiolated PEG over a chip functionalised with thiolated protein A, (-) press load [Continued) C]
[2] = molecular target: Background (Staphylococcus aureus); assay: SPRi, in-line blocking: IgG mix injected after thiolated PEG over a chip functionalised with thiolated protein A, (+) press load (300 Pa) [Continued) E]

IgG mix (antibody)
IgG change (Background curve) (%Reflectivity) [1]: 12 | IgG change (Background curve) (%Reflectivity) [2]: 2
